Paper PMC3778974 (Cell, 2013)
Read-outs that look alike come from different tables or passages of the source.

B1: recombinant Ela1-Elc1 heterodimer (full-length His-Ela1 with Elc1) (complex, S. cerevisiae)
chain 1: MKSLQTLCEISLMRNHSNIQSVSNVPYHLLKRILQKVKIPQLLKLEKSNVLLIFDDDELWLEFLRQDFPTNVHEQFVSKRDIICKYYFDFVKENDIELYHSNQDLLKSCVRQSVVKDIRNNKYRIPYRMLYSKYQQEVEKKQEESAERLRLEMQKLQQEREKKQTIVVDHTVYFKKRNTKKTTRLHNEPHSQLYMKSLKDHESRLKHFKDGGFNIAKRHAQRVAFGGQAGGQSSSPKKGPLSIKPEPVKVNRQMDNVTAEKKDVTQPITPVKKRRSESPSIFLNRKKPALFRPTPKTNAAGSRPHTTAITNDHRTTSHPYPHKDVVTSISSVTANPVTKGHKKKKSGIFVRNAGSDGDSFPHVTATGPTTRPYIYEPRK
chain 2: MSQDFVTLVSKDDKEYEISRSAAMISPTLKAMIEGPFRESKGRIELKQFDSHILEKAVEYLNYNLKYSGVSEDDDEIPEFEIPTEMSLELLLAADYLSI
B2: GST-Ela1_(250–379) (domain or fragment, S. cerevisiae, UniProt P53861 250-379, looked up)
chain: VNRQMDNVTAEKKDVTQPITPVKKRRSESPSIFLNRKKPALFRPTPKTNAAGSRPHTTAITNDHRTTSHPYPHKDVVTSISSVTANPVTKGHKKKKSGIFVRNAGSDGDSFPHVTATGPTTRPYIYEPRK

Tests used:
[1] = molecular target: T1, Def1_(1-500), recombinant (Def1_(1-500)-His) (S. cerevisiae, UniProt P35732 1-500); assay: pull-down
T1 sequence (looked up): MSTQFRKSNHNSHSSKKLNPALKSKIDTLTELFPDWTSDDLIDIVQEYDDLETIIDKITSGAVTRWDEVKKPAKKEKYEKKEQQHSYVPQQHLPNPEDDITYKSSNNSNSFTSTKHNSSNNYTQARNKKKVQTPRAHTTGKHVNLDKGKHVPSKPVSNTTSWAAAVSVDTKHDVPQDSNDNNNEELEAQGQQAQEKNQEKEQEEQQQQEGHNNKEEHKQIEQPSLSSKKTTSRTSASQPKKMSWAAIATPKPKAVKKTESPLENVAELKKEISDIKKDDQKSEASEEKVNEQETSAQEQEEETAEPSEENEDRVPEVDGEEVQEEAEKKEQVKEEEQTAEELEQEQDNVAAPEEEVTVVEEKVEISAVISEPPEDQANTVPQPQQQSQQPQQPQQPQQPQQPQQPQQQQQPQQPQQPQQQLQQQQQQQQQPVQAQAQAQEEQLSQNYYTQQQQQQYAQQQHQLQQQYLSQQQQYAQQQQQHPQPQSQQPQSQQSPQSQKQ

[2] = molecular target: T1, Def1_(1-500), recombinant …; assay: pull-down; remark: listed apart in the source

Row | Binder | binding result [1] | binding result [2]
1 | B1 | binds | 
2 | B2 |  | binds
